# B1: rusticyanin from Thiobacillus ferrooxidans (protein)
# chain: GTLDTTWKEATLPQVKAMLEKDTGKVSGDTVTYSGKTVHVVAAAVLPGFPFPSFEVHDKKNPTLEIPAGATVDVTFINTNKGFGHSFDITKKGPPYAVMPVIDPIVAGTGFSPVPKDGKFGYTDFTWHPTAGTYYYVCQIPGHAATGMFGKIVVK
# What was measured:
# EphB1-Fc = experiment: SPR, cupredoxin immobilised on CM5 chip, 100 nM Eph-Fc injected
# EphA8-Fc = experiment: as above
# Sequence of EphA8-Fc (O09127 27-541): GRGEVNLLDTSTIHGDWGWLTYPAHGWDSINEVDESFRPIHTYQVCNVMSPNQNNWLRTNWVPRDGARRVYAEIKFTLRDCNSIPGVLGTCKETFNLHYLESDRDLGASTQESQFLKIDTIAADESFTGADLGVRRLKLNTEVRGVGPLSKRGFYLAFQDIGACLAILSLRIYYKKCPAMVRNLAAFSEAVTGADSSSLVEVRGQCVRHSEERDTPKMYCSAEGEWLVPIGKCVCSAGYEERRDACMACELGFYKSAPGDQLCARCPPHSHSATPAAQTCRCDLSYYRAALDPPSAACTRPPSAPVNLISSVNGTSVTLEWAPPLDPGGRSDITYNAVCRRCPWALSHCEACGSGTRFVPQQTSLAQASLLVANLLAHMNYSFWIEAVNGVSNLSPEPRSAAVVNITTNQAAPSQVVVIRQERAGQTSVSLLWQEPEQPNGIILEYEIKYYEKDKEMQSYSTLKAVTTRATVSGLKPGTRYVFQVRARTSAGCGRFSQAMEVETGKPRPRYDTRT
# Sequence of EphB1-Fc (P09759 18-540): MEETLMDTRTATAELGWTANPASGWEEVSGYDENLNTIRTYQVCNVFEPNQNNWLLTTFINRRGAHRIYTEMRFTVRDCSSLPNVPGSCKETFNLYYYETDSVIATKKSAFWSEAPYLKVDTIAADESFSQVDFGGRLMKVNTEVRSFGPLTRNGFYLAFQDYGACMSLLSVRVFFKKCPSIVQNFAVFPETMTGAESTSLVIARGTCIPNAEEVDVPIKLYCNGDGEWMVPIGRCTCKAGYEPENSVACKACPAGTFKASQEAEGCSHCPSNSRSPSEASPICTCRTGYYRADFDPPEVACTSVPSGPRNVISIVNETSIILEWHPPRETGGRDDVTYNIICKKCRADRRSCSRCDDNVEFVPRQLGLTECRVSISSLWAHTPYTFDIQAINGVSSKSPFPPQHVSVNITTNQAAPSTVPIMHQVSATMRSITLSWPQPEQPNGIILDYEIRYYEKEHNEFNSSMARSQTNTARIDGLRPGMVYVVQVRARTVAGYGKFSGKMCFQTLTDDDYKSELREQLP
binder,measurement,setting,value
B1,Req (saturating resonance),EphB1-Fc,79 RU
same,Req (saturating resonance),EphA8-Fc,79 RU

# Reference: patent publication US20160151452A1
